“And” between values parts separate entries of the source, which are not always exact repeats. Equal values may be shown once.
B1: High mobility group protein B1, P63159 (parent)
chain: MGKGDPKKPRGKMSSYAFFVQTCREEHKKKHPDASVNFSEFSKKCSERWKTMSAKEKGKFEDMAKADKARYEREMKTYIPPKGETKKKFKDPNAPKRPPSAFFLFCSEYRPKIKGEHPGLSIGDVAKKLGEMWNNTAADDKQPYEKKAAKLKEKYEKDIAAYRAKGKPDAAKKGVVKAEKSKKKKEEEDDEEDEEDEEEEEEEEDEDEEEDDDDE

Variants of: B1
Details: Rattus norvegicus, pH 7, Thermal, CD, HEPES 10 mM, structure 1HME, whole UniProt chain shown; for ddG of mutation (higher = less stable) / unfolding free energy: 20 °C

Variant | ddG of mutation (higher = less stable) (NiSO4 1 mM) [kcal/mol] | unfolding free energy (NiSO4 1 mM) | ddG of mutation (higher = less stable) | unfolding free energy | Tm (NiSO4 1 mM) [°C] | change of melting temperature, mutant - wild type (higher = more stable) (NiSO4 1 mM) [°C] | unfolding enthalpy (van 't Hoff) (NiSO4 1 mM) [kcal/mol] | Tm | change of melting temperature, mutant - wild type (higher = more stable) | unfolding enthalpy (van 't Hoff)
MGKGDPKKPRGKMSSYAFFVQTCREEHKKKHPDASVNFSEFSKKCSERWKTMSAKEKGKFEDMAKADKARYEREMKTYIPPKGETKKKFKDPNAPKRPPSAFFLFCSEYRPKIKGEHPGLHIGDVAKKLGEMWNNTAADDKQPYEKKAAKLKEKYEKDIAAYRAKGKPDAAKKGVVKAEKSKKKKEEEDDEEDEEDEEEEEEEEDEDEEEDDDDE [S121H] | 1.5 | 1.2 kcal/mol | 1.85 kcal/mol | 0.85 kcal/mol | 34.4 | -6.2 | 31.4 | 30.4 °C | -10.2 °C | 28.2 kcal/mol
MGKGDPKKPRGKMSSYAFFVQTCREEHKKKHPDASVNFSEFSKKCSERWKTMSAKEKGKFEDMAKADKARYEREMKTYIPPKGETKKKFKDPNAPKRPPSAFFLFCSEYRPKIKGEHPGLSHGDVAKKLGEMWNNTAADDKQPYEKKAAKLKEKYEKDIAAYRAKGKPDAAKKGVVKAEKSKKKKEEEDDEEDEEDEEEEEEEEDEDEEEDDDDE [I122H] | 0 | 2.7 kcal/mol | 1.23 kcal/mol | 1.74 kcal/mol | 41.9 | 1.3 | 34.2 | 36.2 °C | -4.4 °C | 33.6 kcal/mol
MGKGDPKKPRGKMSSYAFFVQTCREEHKKKHPDASVNFSEFSKKCSERWKTMSAKEKGKFEDMAKADKARYEREMKTYIPPKGETKKKFKDPNAPKRPPSAFFLFCSEYRPKIKGEHPGLSIHDVAKKLGEMWNNTAADDKQPYEKKAAKLKEKYEKDIAAYRAKGKPDAAKKGVVKAEKSKKKKEEEDDEEDEEDEEEEEEEEDEDEEEDDDDE [G123H] | -0.47 | 3.17 kcal/mol | 0.34 kcal/mol | 2.36 kcal/mol | 44.9 | 4.3 | 36.8 |  |  | 
MGKGDPKKPRGKMSSYAFFVQTCREEHKKKHPDASVNFSEFSKKCSERWKTMSAKEKGKFEDMAKADKARYEREMKTYIPPKGETKKKFKDPNAPKRPPSAFFLFCSEYRPKIKGEHPGLSIGDVAKKLGEMWNNTAAHDKQPYEKKAAKLKEKYEKDIAAYRAKGKPDAAKKGVVKAEKSKKKKEEEDDEEDEEDEEEEEEEEDEDEEEDDDDE [D139H] | -0.97 | 3.67 kcal/mol | -0.27 kcal/mol | 2.97 kcal/mol | 46.8 | 6.2 | 41 | 41.1 °C | 0.5 °C | 38.3 kcal/mol
MGKGDPKKPRGKMSSYAFFVQTCREEHKKKHPDASVNFSEFSKKCSERWKTMSAKEKGKFEDMAKADKARYEREMKTYIPPKGETKKKFKDPNAPKRPPSAFFLFCSEYRPKIKGEHPGLSIGDVAKKLGEMWNNTAADHKQPYEKKAAKLKEKYEKDIAAYRAKGKPDAAKKGVVKAEKSKKKKEEEDDEEDEEDEEEEEEEEDEDEEEDDDDE [D140H] | -0.95 | 3.65 kcal/mol |  |  | 46.8 | 6.2 | 36.8 | 38.2 °C | -2.4 °C | 33 kcal/mol
MGKGDPKKPRGKMSSYAFFVQTCREEHKKKHPDASVNFSEFSKKCSERWKTMSAKEKGKFEDMAKADKARYEREMKTYIPPKGETKKKFKDPNAPKRPPSAFFLFCSEYRPKIKGEHPGLSIGDVAKKLGEMWNHTAAHDKQPYEKKAAKLKEKYEKDIAAYRAKGKPDAAKKGVVKAEKSKKKKEEEDDEEDEEDEEEEEEEEDEDEEEDDDDE [N135H D139H] |  | 1.74 kcal/mol and 4.04 kcal/mol and 4.32 kcal/mol |  | 1.69 kcal/mol and 2.42 kcal/mol and 1.67 kcal/mol |  |  |  | 39 °C and 36.3 °C |  | 35.8 kcal/mol and 32.3 kcal/mol
MGKGDPKKPRGKMSSYAFFVQTCREEHKKKHPDASVNFSEFSKKCSERWKTMSAKEKGKFEDMAKADKARYEREMKTYIPPKGETKKKFKDPNAPKRPPSAFFLFCSEYRPKIKGEHPGLSIGDVAKKLGEMWNHTAADHKQPYEKKAAKLKEKYEKDIAAYRAKGKPDAAKKGVVKAEKSKKKKEEEDDEEDEEDEEEEEEEEDEDEEEDDDDE [N135H D140H] |  | 1.8 kcal/mol and 2.46 kcal/mol | 1.3 kcal/mol and 1.2 kcal/mol | 1.4 kcal/mol and 1.5 kcal/mol |  |  |  | 34.3 °C and 35.3 °C | -6.3 °C and -5.3 °C | 33.1 kcal/mol and 31.5 kcal/mol
